Measured values as given in publication PMC3794860, “An RNA-Binding Complex Involved in Ribosome Biogenesis Contains a Protein with Homology to tRNA CCA-Adding Enzyme” (PLoS Biology, 2013).

Target: T1, Utp22 (S. cerevisiae, UniProt P53254 1-1237)
T1 construct: Utp22, yeast, 1,237 residues, amplified from yeast genomic DNA, cloned with no tag; Residues 1-80 and several internal loops are not visible in the crystal; A selenomethionine-labelled form was used for phasing; source: High Five insect cells, recombinant baculovirus, coexpressed with Rrp7, copurified (HisTrap, heparin, Superdex 200)
T1 sequence (looked up): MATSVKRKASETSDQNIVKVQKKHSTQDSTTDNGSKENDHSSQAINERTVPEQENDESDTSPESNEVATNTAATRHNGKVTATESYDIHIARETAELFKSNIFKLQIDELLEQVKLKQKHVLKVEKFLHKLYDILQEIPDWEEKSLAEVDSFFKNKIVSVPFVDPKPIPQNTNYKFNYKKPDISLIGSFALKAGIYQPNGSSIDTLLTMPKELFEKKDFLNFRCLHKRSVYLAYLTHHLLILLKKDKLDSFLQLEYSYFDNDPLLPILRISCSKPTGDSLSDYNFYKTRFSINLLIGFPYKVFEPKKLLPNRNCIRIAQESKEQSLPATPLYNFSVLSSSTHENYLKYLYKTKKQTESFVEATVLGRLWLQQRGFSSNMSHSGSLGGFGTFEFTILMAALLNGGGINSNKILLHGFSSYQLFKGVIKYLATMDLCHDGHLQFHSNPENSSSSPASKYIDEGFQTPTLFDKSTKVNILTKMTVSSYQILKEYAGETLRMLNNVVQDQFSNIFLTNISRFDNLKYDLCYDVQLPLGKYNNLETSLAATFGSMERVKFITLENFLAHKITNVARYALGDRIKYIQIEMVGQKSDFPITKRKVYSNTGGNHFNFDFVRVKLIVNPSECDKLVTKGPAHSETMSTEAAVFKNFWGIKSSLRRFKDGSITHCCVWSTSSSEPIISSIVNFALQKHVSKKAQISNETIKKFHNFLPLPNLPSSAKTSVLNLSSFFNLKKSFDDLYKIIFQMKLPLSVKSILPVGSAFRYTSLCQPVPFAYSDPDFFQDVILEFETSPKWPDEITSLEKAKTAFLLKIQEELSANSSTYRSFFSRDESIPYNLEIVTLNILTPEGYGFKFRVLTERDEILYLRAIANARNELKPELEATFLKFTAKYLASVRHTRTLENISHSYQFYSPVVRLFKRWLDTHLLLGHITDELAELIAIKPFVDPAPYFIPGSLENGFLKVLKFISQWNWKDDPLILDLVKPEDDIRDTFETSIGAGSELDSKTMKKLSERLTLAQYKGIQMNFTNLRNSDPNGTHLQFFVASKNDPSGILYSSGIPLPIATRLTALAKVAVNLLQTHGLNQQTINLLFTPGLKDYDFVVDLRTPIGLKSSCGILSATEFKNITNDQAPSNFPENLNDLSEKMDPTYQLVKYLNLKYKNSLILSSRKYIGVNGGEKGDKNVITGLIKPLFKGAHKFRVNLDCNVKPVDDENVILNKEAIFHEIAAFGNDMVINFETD
Assay: crystal structure; Utp22 and Rrp7 coexpressed in insect cells, copurified and cocrystallised; hanging drop, 20°C, 100 mM sodium cacodylate pH 6.2–6.5, 30% PEG 400, 200 mM lithium sulfate; refined to 1.97 Å
Details: both partners purified

B1: Rrp7 (natural protein, S. cerevisiae, UniProt P25368 1-297, looked up)
chain: MGIEDISAMKNGFIVVPFKLPDHKALPKSQEASLHFMFAKRHQSSNSNESDCLFLVNLPLLSNIEHMKKFVGQLCGKYDTVSHVEELLYNDEFGLHEVDLSALTSDLMSSTDVNEKRYTPRNTALLKFVDAASINNCWNALKKYSNLHAKHPNELFEWTYTTPSFTTFVNFYKPLDIDYLKEDIHTHMAIFEQREAQAQEDVQSSIVDEDGFTLVVGKNTKSLNSIRKKILNKNPLSKHENKAKPISNIDKKAKKDFYRFQVRERKKQEINQLLSKFKEDQERIKVMKAKRKFNPYT
notes: N-terminal His6-tag followed by a PreScission site, cleaved with PreScission protease; source: High Five insect cells, recombinant baculovirus, coexpressed with Utp22, copurified (HisTrap, heparin, Superdex 200); not shown: His6, N-terminal, cleaved
B1: binds.
